Measured values reported in US20200317768A1 (published 2020).
Changes are numbered by the printed parent chain.

T1: human FcγRIIb extracellular domain, His-tagged (human, UniProt P31994 43-217)
T1 construct: also called FcgRIIb (human)
T1 sequence: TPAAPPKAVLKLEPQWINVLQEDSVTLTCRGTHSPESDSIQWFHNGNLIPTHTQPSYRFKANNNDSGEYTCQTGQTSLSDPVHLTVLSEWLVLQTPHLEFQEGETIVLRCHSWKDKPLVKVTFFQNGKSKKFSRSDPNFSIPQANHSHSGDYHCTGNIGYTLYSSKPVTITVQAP

T2: human FcγRIIaH extracellular domain, His-tagged (human, UniProt P12318 34-217)
T2 construct: also called human FcγRIIa (type H); FcgRIIaH
T2 sequence: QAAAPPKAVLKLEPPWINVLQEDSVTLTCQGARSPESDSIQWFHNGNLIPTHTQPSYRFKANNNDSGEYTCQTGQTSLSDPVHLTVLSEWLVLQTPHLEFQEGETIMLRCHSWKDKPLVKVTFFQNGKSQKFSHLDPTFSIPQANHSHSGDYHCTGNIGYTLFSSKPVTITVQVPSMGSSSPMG

T3: human FcγRIIaR extracellular domain, His-tagged (human, UniProt P12318 34-217)
T3 construct: also called human FcγRIIa (type R); FcgRIIaR
T3 chain: T2 sequence with H134R

T4: cynomolgus monkey FcγRIIa1 extracellular domain, His-tagged (cynomolgus monkey)
T4 construct: also called cyno FcγRIIa1; cynoFcgRIIa1
T4 chain: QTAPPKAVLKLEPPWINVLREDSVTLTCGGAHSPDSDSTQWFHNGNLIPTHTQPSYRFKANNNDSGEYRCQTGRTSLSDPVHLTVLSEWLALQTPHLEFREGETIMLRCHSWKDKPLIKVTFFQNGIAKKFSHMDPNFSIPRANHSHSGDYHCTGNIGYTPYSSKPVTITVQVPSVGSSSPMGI

T5: cynomolgus monkey FcγRIIa3 extracellular domain, His-tagged (cynomolgus monkey)
T5 construct: also called cyno FcγRIIa3; cynoFcgRIIa3
T5 chain: T4 chain with P95T, T121A, A128S, H133P, D135N

T6: cynomolgus monkey FcγRIIb extracellular domain, His-tagged (cynomolgus monkey)
T6 construct: also called cyno FcγRIIb; cynoFcγRIIb
T6 chain: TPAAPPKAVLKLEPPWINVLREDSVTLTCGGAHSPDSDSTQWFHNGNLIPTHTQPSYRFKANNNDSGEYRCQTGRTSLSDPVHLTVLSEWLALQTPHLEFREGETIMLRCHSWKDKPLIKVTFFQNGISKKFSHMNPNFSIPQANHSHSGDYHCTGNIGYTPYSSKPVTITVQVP

T7: cynomolgus monkey FcγRIIIaS extracellular domain, His-tagged (cynomolgus monkey, UniProt Q8SPW2 21-206 at identity 1.00))
T7 construct: also called cyno FcγRIIIaS; cynoFcγRIIIaS
T7 chain: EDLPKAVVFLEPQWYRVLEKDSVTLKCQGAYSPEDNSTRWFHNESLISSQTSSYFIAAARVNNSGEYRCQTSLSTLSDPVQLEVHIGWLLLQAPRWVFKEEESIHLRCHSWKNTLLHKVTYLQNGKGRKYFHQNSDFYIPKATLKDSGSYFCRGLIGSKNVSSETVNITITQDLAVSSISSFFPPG

T8: cynomolgus monkey FcγRIIa2 extracellular domain, His-tagged (cynomolgus monkey)
T8 construct: also called cyno FcγRIIa2; cynoFcgRIIa2
T8 chain: T4 chain with P95T, T121A, I127K, A128S, K130N, D135N, R142Q

B1: M103205H795-MY012/M103202L889-SK1 (antibody, human IgG1, kappa)
heavy: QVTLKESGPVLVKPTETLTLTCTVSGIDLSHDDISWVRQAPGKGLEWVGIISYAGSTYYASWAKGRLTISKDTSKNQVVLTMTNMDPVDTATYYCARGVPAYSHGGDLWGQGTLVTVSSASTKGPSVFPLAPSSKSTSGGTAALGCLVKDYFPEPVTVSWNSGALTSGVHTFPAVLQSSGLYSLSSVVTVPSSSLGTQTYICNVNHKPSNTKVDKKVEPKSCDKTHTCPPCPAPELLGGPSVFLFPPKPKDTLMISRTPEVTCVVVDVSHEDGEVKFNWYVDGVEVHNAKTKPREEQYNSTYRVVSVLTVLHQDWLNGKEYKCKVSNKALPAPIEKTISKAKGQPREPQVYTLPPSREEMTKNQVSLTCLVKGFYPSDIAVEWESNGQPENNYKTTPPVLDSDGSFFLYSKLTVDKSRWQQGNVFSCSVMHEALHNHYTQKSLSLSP
light: DIVMTQSPATLSLSPGERATLSCTSSQSVYHANWLSWFQQKPGQPPKLLIYWASTLAYGVPSRFSGSGSGTDFTLTISSLQPEDAATYYCAGGYGGGRYAFGQGTKVEIKRTVAAPSVFIFPPSDEQLKSGTASVVCLLNNFYPREAKVQWKVDNALQSGNSQESVTEQDSKDSTYSLSSTLTLSKADYEKHKVYACEVTHQGLSSPVTKSFNRGEC
notes: Put into M103205H795-SG1
B2: M103205H795-MY015/M103202L889-SK1 (antibody, human IgG1, kappa)
heavy: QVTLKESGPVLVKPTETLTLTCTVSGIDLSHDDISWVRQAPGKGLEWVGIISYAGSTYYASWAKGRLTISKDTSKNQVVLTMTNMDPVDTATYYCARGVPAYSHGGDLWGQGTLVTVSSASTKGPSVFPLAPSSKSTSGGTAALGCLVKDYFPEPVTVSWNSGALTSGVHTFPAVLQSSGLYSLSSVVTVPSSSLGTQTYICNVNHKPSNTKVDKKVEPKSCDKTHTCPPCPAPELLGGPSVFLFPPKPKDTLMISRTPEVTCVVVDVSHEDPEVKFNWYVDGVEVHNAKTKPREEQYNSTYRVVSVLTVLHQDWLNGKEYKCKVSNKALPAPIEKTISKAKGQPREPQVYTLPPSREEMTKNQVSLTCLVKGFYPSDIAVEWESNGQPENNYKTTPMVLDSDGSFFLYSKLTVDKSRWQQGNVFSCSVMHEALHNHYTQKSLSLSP
light: B1 light
notes: Substitution put into M103205H795-SG1
B3: M103205H795-MY017/M103202L889-SK1 (antibody, human IgG1, kappa)
heavy: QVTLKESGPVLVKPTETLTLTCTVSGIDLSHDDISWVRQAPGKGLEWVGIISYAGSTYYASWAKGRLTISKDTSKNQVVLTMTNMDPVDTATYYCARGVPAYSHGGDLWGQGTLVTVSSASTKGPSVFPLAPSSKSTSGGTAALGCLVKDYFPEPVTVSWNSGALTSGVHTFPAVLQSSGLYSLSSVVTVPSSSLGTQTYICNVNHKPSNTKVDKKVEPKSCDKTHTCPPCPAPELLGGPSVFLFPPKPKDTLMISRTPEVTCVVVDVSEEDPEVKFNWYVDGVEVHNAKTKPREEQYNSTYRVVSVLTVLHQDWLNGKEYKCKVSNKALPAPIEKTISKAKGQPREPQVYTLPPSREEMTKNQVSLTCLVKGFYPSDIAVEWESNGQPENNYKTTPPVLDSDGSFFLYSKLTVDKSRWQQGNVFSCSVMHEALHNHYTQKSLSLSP
light: B1 light
notes: as for B2
B4: M103205H795-MY061/M103202L889-SK1 (antibody, human IgG1, kappa)
heavy: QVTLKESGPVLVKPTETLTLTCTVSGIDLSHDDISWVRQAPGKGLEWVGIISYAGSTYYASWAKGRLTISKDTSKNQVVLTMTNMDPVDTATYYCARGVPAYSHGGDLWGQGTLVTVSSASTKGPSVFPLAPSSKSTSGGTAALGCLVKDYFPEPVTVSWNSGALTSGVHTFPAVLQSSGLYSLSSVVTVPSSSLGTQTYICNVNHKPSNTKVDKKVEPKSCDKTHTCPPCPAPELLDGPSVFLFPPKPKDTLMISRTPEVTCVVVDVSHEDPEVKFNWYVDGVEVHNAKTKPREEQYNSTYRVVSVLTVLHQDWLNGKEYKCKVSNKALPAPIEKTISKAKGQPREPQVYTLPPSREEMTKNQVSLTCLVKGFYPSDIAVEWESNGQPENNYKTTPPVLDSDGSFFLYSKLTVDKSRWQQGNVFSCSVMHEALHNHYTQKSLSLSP
light: B1 light
notes: as for B2
B5: M103205H795-MY066/M103202L889-SK1 (antibody, human IgG1, kappa)
heavy: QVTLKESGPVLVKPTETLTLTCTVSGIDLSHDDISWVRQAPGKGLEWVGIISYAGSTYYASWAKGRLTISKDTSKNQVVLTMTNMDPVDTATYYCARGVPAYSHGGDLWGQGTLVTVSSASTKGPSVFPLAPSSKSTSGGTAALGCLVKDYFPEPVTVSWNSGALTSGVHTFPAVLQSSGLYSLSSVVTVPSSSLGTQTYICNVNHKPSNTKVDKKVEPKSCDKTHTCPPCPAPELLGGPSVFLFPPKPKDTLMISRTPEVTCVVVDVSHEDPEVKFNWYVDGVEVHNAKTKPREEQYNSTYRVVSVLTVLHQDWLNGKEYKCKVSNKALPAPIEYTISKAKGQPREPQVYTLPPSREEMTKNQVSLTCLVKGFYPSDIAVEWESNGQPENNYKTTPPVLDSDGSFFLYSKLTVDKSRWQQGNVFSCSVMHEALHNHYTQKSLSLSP
light: B1 light
notes: as for B2
B6: M103205H795-MY067/M103202L889-SK1 (antibody, human IgG1, kappa)
heavy: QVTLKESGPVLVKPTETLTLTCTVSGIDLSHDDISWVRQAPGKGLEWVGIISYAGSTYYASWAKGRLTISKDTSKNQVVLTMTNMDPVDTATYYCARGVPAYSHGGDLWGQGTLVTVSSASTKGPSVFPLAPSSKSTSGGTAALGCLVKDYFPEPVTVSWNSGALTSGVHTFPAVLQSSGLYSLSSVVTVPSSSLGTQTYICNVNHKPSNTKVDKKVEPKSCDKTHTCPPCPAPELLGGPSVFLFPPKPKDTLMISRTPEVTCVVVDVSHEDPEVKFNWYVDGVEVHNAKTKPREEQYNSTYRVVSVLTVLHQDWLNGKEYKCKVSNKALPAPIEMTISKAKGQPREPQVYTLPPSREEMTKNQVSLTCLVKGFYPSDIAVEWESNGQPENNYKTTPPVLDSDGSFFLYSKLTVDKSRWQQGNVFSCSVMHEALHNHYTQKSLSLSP
light: B1 light
notes: as for B2

Experiments:
[1] = target: T9, human FcγRIIIaV extracellular domain, His-tagged (human, UniProt P08637 17-208); assay: SPR, antibody captured, FcgR analyte
T9 construct: also called FcgRIIIaV
Protocol: (§1) The kinetic analysis of interactions between these antibodies and FcγR was carried out using BIACORE® T200 or BIACORE® 4000 (GE Healthcare). HBS-EP+ (GE Healthcare) was used as the running buffer, and the measurement temperature was set to 25° C. A chip produced by immobilizing Protein A. Protein A/G or mouse anti-human IgG kappa light chain (BD Biosciences) onto a Series S Sensor Chip CM4 or CM5 (GE Healthcare) by the amine-coupling method was used. […] After the measurement, the antibody captured on the chip was washed off by allowing reaction with 10 mM glycine-HCl, pH1.5 and 25 mM NaOH so that the chip was regenerated and used repeatedly. The sensorgrams obtained as measurement results were analyzed by the 1:1 Langmuir binding model using the BIACORE® Evaluation Software to calculate the binding rate constant ka (L/mol/s) and dissociation rate constant kd (l/s), and the dissociation constant KD (mol/L) was calculated from these values. […] Regarding such interactions, KD values were calculated using the following 1:1 binding model described in BIACORE® T100 Software Handbook BR1006-48 Edition AE.
(§2) The behavior of interacting molecules according to the 1:1 binding model on BIACORE® can be described by Equation 1: Req=C·R max/(KD+C)+RI, wherein, Req is a plot of steady-state binding levels to analyte concentration. C is concentration, RI is bulk refractive index contribution in the sample, and Rmax is analyte binding capacity of the surface. When this equation is rearranged, KD can be expressed as Equation 2: KD=C·Rmax/(Req−RI)−C. KD can be calculated by substituting the values of Rmax, RI, and C into Equation 1 or Equation 2. From the current measurement conditions, RI=0, C=2 μmol/L can be used.

[2] = target: T1, human FcγRIIb extracellular domain, …; assay: SPR, antibody captured, FcgR analyte
Protocol: as §1, §2

[3] = target: T2, human FcγRIIaH extracellular domain, …; assay: SPR, antibody captured, FcgR analyte
Protocol: as §1, §2

[4] = target: T3, human FcγRIIaR extracellular domain, …; assay: SPR, antibody captured, FcgR analyte
Protocol: as §1, §2

[5] = target: T4, cynomolgus monkey FcγRIIa1 …; assay: SPR, antibody captured, FcgR analyte
Protocol: as §1, §2

[6] = target: T5, cynomolgus monkey FcγRIIa3 …; assay: SPR, antibody captured, FcgR analyte
Protocol: as §1, §2

[7] = target: T6, cynomolgus monkey FcγRIIb extracellular …; assay: SPR, antibody captured, FcgR analyte
Protocol: as §1, §2

[8] = target: T7, cynomolgus monkey FcγRIIIaS …; assay: SPR, antibody captured, FcgR analyte
Protocol: as §1, §2

[9] = target: T8, cynomolgus monkey FcγRIIa2 …; assay: SPR, antibody captured, FcgR analyte
Protocol: as §1, §2

[10] = target: T9, human FcγRIIIaV extracellular domain, …; assay: SPR; KD of SG1 / KD of variant;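 further: relative to parent M103205H795-SG1 carrying the SG1 human heavy chain constant region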
[11] = target: T1, human FcγRIIb extracellular domain, …; assay: SPR; KD of SG1 / KD of variant;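 further: relative to parent M103205H795-SG1 carrying the SG1 human heavy chain constant region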
[12] = target: T2, human FcγRIIaH extracellular domain, …; assay: SPR; KD of SG1 / KD of variant;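 further: relative to parent M103205H795-SG1 carrying the SG1 human heavy chain constant region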
[13] = target: T4, cynomolgus monkey FcγRIIa1 …; assay: SPR; KD of SG1 / KD of variant;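 further: relative to parent M103205H795-SG1 carrying the SG1 human heavy chain constant region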
[14] = target: T5, cynomolgus monkey FcγRIIa3 …; assay: SPR; KD of SG1 / KD of variant
[15] = target: T6, cynomolgus monkey FcγRIIb extracellular …; assay: SPR; KD of SG1 / KD of variant
[16] = target: T7, cynomolgus monkey FcγRIIIaS …; assay: SPR; KD of SG1 / KD of variant
[17] = target: T8, cynomolgus monkey FcγRIIa2 …; assay: SPR; KD of SG1 / KD of variant

T9 sequence (P08637 17-208 F176V): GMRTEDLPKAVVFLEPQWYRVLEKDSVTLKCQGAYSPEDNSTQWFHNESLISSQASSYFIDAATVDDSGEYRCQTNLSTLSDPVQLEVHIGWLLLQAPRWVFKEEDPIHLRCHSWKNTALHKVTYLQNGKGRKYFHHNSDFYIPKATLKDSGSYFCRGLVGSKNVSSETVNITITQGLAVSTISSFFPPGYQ

Binder	Kd [1] [nM]	Kd [2] [nM]	Kd [3] [nM]	Kd [4] [nM]	Kd [5] [nM]	Kd [6] [nM]	Kd [7] [nM]	Kd [8] [nM]	Kd [9] [nM]	KD fold (SG1 = 1) [10] [fold]	KD fold (SG1 = 1) [11] [fold]	KD fold (SG1 = 1) [12] [fold]	KD fold (SG1 = 1) [13] [fold]	KD fold (SG1 = 1) [14] [fold]	KD fold (SG1 = 1) [15] [fold]	KD fold (SG1 = 1) [16] [fold]	KD fold (SG1 = 1) [17] [fold]
B1	480	900	440	230	2100	7900	1100	200	2300	1.69	5.3	1.6	1.5	2.2	1.6	1.8	2.2
B2	240	1600	330	320	1300	4700	–	100	1500	–	–	–	–	–	–	–	–
B3	140	940	450	280	2700	5500	580	98	2900	5.79	4.9	1.5	1.2	3.2	2.6	3.67	1.8
B4	3000	2500	1400	1300	6500	18000	4200	3400	–	0.27	1.8	0.5	0.5	0.5	0.6	0.11	0.8
B5	290	2800	640	970	2100	5700	1400	160	2800	–	–	–	–	–	–	–	–
B6	200	2800	530	760	2100	6700	1100	100	2300	–	–	–	–	–	–	–	–
